Test results as given in patent US20160160255A1, “Methods and Materials for Producing 6-Carbon Monomers” (INVISTA North America S.á.r.l., priority 2014, published 2016).

B1: SEQ ID NO 7: Chromobacterium violaceum ω-transaminase, Genbank Accession No. AAQ59697.1, N-terminal His-tagged (protein, listed as Chromobacterium violaceum)
chain: MQKQRTTSQWRELDAAHHLHPFTDTASLNQAGARVMTRGEGVYLWDSEGNKIIDGMAGLWCVNVGYGRKDFAEAARRQMEELPFYNTFFKTTHPAVVELSSLLAEVTPAGFDRVFYTNSGSESVDTMIRMVRRYWDVQGKPEKKTLIGRWNGYHGSTIGGASLGGMKYMHEQGDLPIPGMAHIEQPWWYKHGKDMTPDEFGVVAARWLEEKILEIGADKVAAFVGEPIQGAGGVIVPPATYWPEIERICRKYDVLLVADEVICGFGRTGEWFGHQHFGFQPDLFTAAKGLSSGYLPIGAVFVGKRVAEGLIAGGDFNHGFTYSGHPVCAAVAHANVAALRDEGIVQRVKDDIGPYMQKRWRETFSRFEHVDDVRGVGMVQAFTLVKNKAKRELFPDFGEIGTLCRDIFFRNNLIMRACGDHIVSAPPLVMTRAEVDEMLAVAERCLEEFEQTLKARGLA
modifications: N-terminal His tag
B2: SEQ ID NO 9: Pseudomonas syringae ω-transaminase, Genbank Accession No. AAY39893.1, N-terminal His-tagged (protein, listed as Pseudomonas syringae)
chain: MSANNPQTLEWQALSSEHHLAPFSDYKQLKEKGPRIITRAEGVYLWDSEGNKILDGMSGLWCVAIGYGREELADAASKQMRELPYYNLFFQTAHPPVLELAKAISDIAPEGMNHVFFTGSGSEGNDTMLRMVRHYWALKGQPNKKTIISRVNGYHGSTVAGASLGGMTYMHEQGDLPIPGVVHIPQPYWFGEGGDMTPDEFGIWAAEQLEKKILELGVENVGAFIAEPIQGAGGVIVPPDSYWPKIKEILSRYDILFAADEVICGFGRTSEWFGSDFYGLRPDMMTIAKGLTSGYVPMGGLIVRDEIVAVLNEGGDFNHGFTYSGHPVAAAVALENIRILREEKIVERVRSETAPYLQKRLRELSDHPLVGEVRGVGLLGAIELVKDKTTRERYTDKGAGMICRTFCFDNGLIMRAVGDTMIIAPPLVISFAQIDELVEKARTCLDLTLAVLQG
modifications: N-terminal His tag
B3: SEQ ID NO 12: Vibrio fluvialis ω-transaminase, Genbank Accession No. AEA39183.1, N-terminal His-tagged (protein, listed as Vibrio fluvialis)
chain: MNKPQSWEARAETYSLYGFTDMPSLHQRGTVVVTHGEGPYIVDVNGRRYLDANSGLWNMVAGFDHKGLIDAAKAQYERFPGYHAFFGRMSDQTVMLSEKLVEVSPFDSGRVFYTNSGSEANDTMVKMLWFLHAAEGKPQKRKILTRWNAYHGVTAVSASMTGKPYNSVFGLPLPGFVHLTCPHYWRYGEEGETEEQFVARLARELEETIQREGADTIAGFFAEPVMGAGGVIPPAKGYFQAILPILRKYDIPVISDEVICGFGRTGNTWGCVTYDFTPDAIISSKNLTAGFFPMGAVILGPELSKRLETAIEAIEEFPHGFTASGHPVGCAIALKAIDVVMNEGLAENVRRLAPRFEERLKHIAERPNIGEYRGIGFMWALEAVKDKASKTPFDGNLSVSERIANTCTDLGLICRPLGQSVVLCPPFILTEAQMDEMFDKLEKALDKVFAEVA
modifications: N-terminal His tag
B4: SEQ ID NO 8: Pseudomonas aeruginosa ω-transaminase, Genbank Accession No. AAG08191.1, N-terminal His-tagged (protein, listed as Pseudomonas aeruginosa)
chain: MNARLHATSPLGDADLVRADQAHYMHGYHVFDDHRVNGSLNIAAGDGAYIYDTAGNRYLDAVGGMWCTNIGLGREEMARTVAEQTRLLAYSNPFCDMANPRAIELCRKLAELAPGDLDHVFLTTGGSTAVDTAIRLMHYYQNCRGKRAKKHVITRINAYHGSTFLGMSLGGKSADRPAEFDFLDERIHHLACPYYYRAPEGLGEAEFLDGLVDEFERKILELGADRVGAFISEPVFGSGGVIVPPAGYHRRMWELCQRYDVLYISDEVVTSFGRLGHFFASQAVFGVQPDIILTAKGLTSGYQPLGACIFSRRIWEVIAEPDKGRCFSHGFTYSGHPVACAAALKNIEIIEREGLLAHADEVGRYFEERLQSLRDLPIVGDVRGMRFMACVEFVADKASKALFPESLNIGEWVHLRAQKRGLLVRPIVHLNVMSPPLILTREQVDTVVRVLRESIEETVEDLVRAGHR
modifications: N-terminal His tag
B5: SEQ ID NO 6: Segniliparus rotundus carboxylate reductase, Genbank Accession No. ADG98140.1, N-terminal His-tagged (protein, listed as Segniliparus rotundus)
chain: MTQSHTQGPQASAAHSRLARRAAELLATDPQAAATLPDPEVVRQATRPGLRLAERVDAILSGYADRPALGQRSFQTVKDPITGRSSVELLPTFDTITYRELRERATAIASDLAHHPQAPAKPGDFLASIGFISVDYVAIDIAGVFAGLTAVPLQTGATLATLTAITAETAPTLFAASIEHLPTAVDAVLATPSVRRLLVFDYRAGSDEDREAVEAAKRKIADAGSSVLVDVLDEVIARGKSAPKAPLPPATDAGDDSLSLLIYTSGSTGTPKGAMYPERNVAHFWGGVWAAAFDEDAAPPVPAINITFLPLSHVASRLSLMPTLARGGLMHFVAKSDLSTLFEDLKLARPTNLFLVPRVVEMLYQHYQSELDRRGVQDGTREAEAVKDDLRTGLLGGRILTAGFGSAPLSAELAGFIESLLQIHLVDGYGSTEAGPVWRDGYLVKPPVTDYKLIDVPELGYFSTDSPHPRGELAIKTQTILPGYYKRPETTAEVFDEDGFYLTGDVVAQIGPEQFAYVDRRKNVLKLSQGEFVTLAKLEAAYSSSPLVRQLFVYGSSERSYLLAVIVPTPDALKKFGVGEAAKAALGESLQKIARDEGLQSYEVPRDFIIETDPFTVENGLLSDARKSLRPKLKEHYGERLEAMYKELADGQANELRDIRRGVQQRPTLETVRRAAAAMLGASAAEIKPDAHFTDLGGDSLSALTFSNFLHDLFEVDVPVGVIVSAANTLGSVAEHIDAQLAGGRARPTFATVHGKGSTTIKASDLTLDKFIDEQTLEAAKHLPKPADPPRTVLLTGANGWLGRFLALEWLERLAPAGGKLITIVRGKDAAQAKARLDAAYESGDPKLAGHYQDLAATTLEVLAGDFSEPRLGLDEATWNRLADEVDFISHPGALVNHVLPYNQLFGPNVAGVAEIIKLAITTRIKPVTYLSTVAVAAGVEPSALDEDGDIRTVSAERSVDEGYANGYGNSKWGGEVLLREAHDRTGLPVRVFRSDMILAHQKYTGQVNATDQFTRLVQSLLATGLAPKSFYELDAQGNRQRAHYDGIPVDFTAESITTLGGDGLEGYRSYNVFNPHRDGVGLDEFVDWLIEAGHPITRIDDYDQWLSRFETSLRGLPESKRQASVLPLLHAFARPGPAVDGSPFRNTVFRTDVQKAKIGAEHDIPHLGKALVLKYADDIKQLGLL
modifications: N-terminal His tag

Tests used:
Type in all cases: biochemical
[1] = ω-transaminase activity, adipate semialdehyde to 6-aminohexanoate (forward direction); settings: cell free extract, 10 mM adipate semialdehyde, 10 mM L-alanine, pH 7.5, 25° C., 4 h, RP-HPLC
Procedure: (§1) A nucleotide sequence encoding a His-tag was added to the nucleic acid sequences from Chromobacterium violaceum, Pseudomonas aeruginosa, Pseudomonas syringae, Rhodobacter sphaeroides, and Vibrio fluvialis encoding the ω-transaminases of SEQ ID NOs: 7, 8, 9, 10 and 12, respectively (see FIG. 6) such that N-terminal HIS tagged ω-transaminases could be produced. Each of the resulting modified genes was cloned into a pET21a expression vector under control of the T7 promoter and each expression vector was transformed into a BL21[DE3] E. coli host. The resulting recombinant E. coli strains were cultivated at 37° C. in a 250 mL shake flask culture containing 50 mL LB media and antibiotic selection pressure, with shaking at 230 rpm. Each culture was induced overnight at 16° C. using 1 mM IPTG.
(§2) The pellet from each induced shake flask culture was harvested via centrifugation. Each pellet was resuspended and lysed via sonication. The cell debris was separated from the supernatant via centrifugation and the cell free extract was used immediately in enzyme activity assays.
Enzyme activity in the forward direction (i.e., adipate semialdehyde to 6-aminohexanoate) was confirmed for the transaminases of SEQ ID NO 7, SEQ ID NO 8, SEQ ID NO 9, SEQ ID NO 10 and SEQ ID NO 12. Enzyme activity assays were performed in a buffer composed of a final concentration of 50 mM HEPES buffer (pH=7.5), 10 mM adipate semialdehyde, 10 mM L-alanine and 100 μM pyridoxyl 5′ phosphate. Each enzyme activity assay reaction was initiated by adding a cell free extract of the ω-transaminase gene product or the empty vector control to the assay buffer containing the adipate semialdehyde and incubated at 25° C. for 4 h, with shaking at 250 rpm. The formation of pyruvate was quantified via RP-HPLC.

[2] = ω-transaminase activity, 6-aminohexanoate to adipate semialdehyde (reverse direction); settings: cell free extract, 10 mM 6-aminohexanoate, 10 mM pyruvate, pH 7.5, 25° C., 24 h, RP-HPLC
Procedure: as §1, §2
Enzyme activity assays in the reverse direction (i.e., 6-aminohexanoate to adipate semialdehyde) were performed in a buffer composed of a final concentration of 50 mM HEPES buffer (pH=7.5), 10 mM 6-aminohexanoate, 10 mM pyruvate and 100 μM pyridoxyl 5′ phosphate. Each enzyme activity assay reaction was initiated by adding cell free extract of the ω-transaminase gene product or the empty vector control to the assay buffer containing the 6-aminohexanoate and incubated at 25° C. for 24 h, with shaking at 250 rpm. The formation of L-alanine from pyruvate was quantified via RP-HPLC.

[3] = carboxylate reductase activity, adipate semialdehyde to hexanedial; settings: purified enzyme with sfp phosphopantetheine transferase, 2 mM adipate semialdehyde, pH 7.5, room temperature, 20 min
Procedure: The N-terminal His-tagged carboxylate reductase of SEQ ID NO 6 (see Example 2 and FIG. 6) was assayed using adipate semialdehyde as substrate. The enzyme activity assay was performed in triplicate in a buffer composed of a final concentration of 50 mM HEPES buffer (pH=7.5), 2 mM adipate semialdehyde, 10 mM MgCl2, 1 mM ATP and 1 mM NADPH. The enzyme activity assay reaction was initiated by adding purified carboxylate reductase and phosphopantetheine transferase or the empty vector control to the assay buffer containing the adipate semialdehyde and then incubated at room temperature for 20 min. The consumption of NADPH was monitored by absorbance at 340 nm.

Row | Molecule | acceptance of adipate semialdehyde as substrate (conversion of L-alanine to pyruvate vs empty vector control) [1] | acceptance of 6-aminohexanoate as substrate (conversion of pyruvate to L-alanine vs empty vector control) [2] | acceptance of adipate semialdehyde as substrate (NADPH consumption, absorbance at 340 nm, vs empty vector control) [3]
1 | SEQ ID NO 10: Rhodobacter sphaeroides ω-transaminase, Genbank Accession No. ABA81135.1, N-terminal His-tagged | accepted adipate semialdehyde as substrate | accepted 6-aminohexanote as substrate | –
2 | B1 | accepted adipate semialdehyde as substrate | accepted 6-aminohexanote as substrate | –
3 | B2 | accepted adipate semialdehyde as substrate | accepted 6-aminohexanote as substrate | –
4 | B3 | accepted adipate semialdehyde as substrate | accepted 6-aminohexanote as substrate | –
5 | B4 | accepted adipate semialdehyde as substrate | – | –
6 | B5 | – | – | accepted adipate semialdehyde as substrate
